Measurements taken from PMC7538681.

Assays:
[1] = molecular target: N-terminal His-tagged SmYrbA (Sinorhizobium meliloti (strain Sm2011)); assay: switchSENSE; His-tagged SmYrbA held on Ni-NTA3-tagged 48mer DNA nanolevers on the chip; SmGrx2 injected at 25, 50 and 100 µM; 10 mM potassium phosphate pH 7.4, 2 mM MgCl2; 25°C; switching dynamic mode; single-exponential fits; Kd = koff/kon
[2] = molecular target: Sinorhizobium meliloti glutaredoxin 2 (SmGrx2), untagged (Sinorhizobium meliloti (strain Sm2011)); assay: ITC; SmGrx2 (50 µM, in the cell) titrated with SmYrbA (800 µM), 30 mM phosphate buffer pH 8.0, 20°C, one-set-of-sites model, duplicate

Chain of N-terminal His-tagged SmYrbA (Sinorhizobium meliloti (strain Sm2011)) (main, as listed by the source): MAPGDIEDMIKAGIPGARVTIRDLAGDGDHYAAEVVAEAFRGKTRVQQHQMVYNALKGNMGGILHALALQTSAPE

Sinorhizobium meliloti glutaredoxin 2 (SmGrx2), untagged (natural protein)
Kd [1]: 5.6 µM
dissociation halftime [1]: 50 s
koff [1]: 0.014 s⁻¹
kon [1]: 2410 M⁻¹ s⁻¹

Sinorhizobium meliloti YrbA (SmYrbA), untagged (natural protein)
Kd [2]: 6.8 µM
dH [2]: -2.9 kcal/mol
stoichiometry N [2]: 1.27
